The text below walks through data of the supplement of paper PMC10567573.

The chains are these.
B1: PWWP2B (parent)
chain: TIRLRPRQVLCEKCKSTLSPPEAS
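Also: lentivirally expressed fusions sorted by FACS into six bins by GFP to DsRed ratio, PSI derived from sequencing read proportions per bin multiplied by bin number.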

The variants in the series derive from B1. In words: protein stability index of a GFP-peptide fusion (GPS, HEK-293T) (PSI 1-6); higher = more stable. The note with it: c terminus: a fixed tail appended.
On to TIRLRPRQLLCEKCKSTLSPPEAS, for which the protein stability index amounted to 2.37.
Next, TIRLRPRQWLCEKCKSTLSPPEAS: 2.24; TIRLRPRQELCEKCKSTLSPPEAS: 3.35; TIRLRPRQFLCEKCKSTLSPPEAS: 2.72.
Next, TIRLRPRQCLCEKCKSTLSPPEAS: 3.42.
Next, TIRLRPRQSLCEKCKSTLSPPEAS: 3.16; TIRLRPRQILCEKCKSTLSPPEAS: 3.
TIRLRPRQALCEKCKSTLSPPEAS: the protein stability index turned out to be 3.61.
In the case of TIRLRPRQQLCEKCKSTLSPPEAS, the protein stability index amounted to 3.31.
For TIRLRPRQRLCEKCKSTLSPPEAS, the protein stability index is 2.94.
Take TIRLRPRQDLCEKCKSTLSPPEAS: the protein stability index stood at 3.19.
Next, TIRLRPRQTLCEKCKSTLSPPEAS: 3.33; TIRLRPRQHLCEKCKSTLSPPEAS: 2.97.
Consider TIRLRPRQKLCEKCKSTLSPPEAS, for which the protein stability index was found to be 2.85.
For the variant TIRLRPRQNLCEKCKSTLSPPEAS, the protein stability index was found to be 3.58.
Next, TIRLRPRQGLCEKCKSTLSPPEAS: 2.64; TIRLRPRQPLCEKCKSTLSPPEAS: 3.13; TIRLRPRQMLCEKCKSTLSPPEAS: 2.73.
Next, TIRLNPRQVLCEKCKSTLSPPEAS: 2.78; TIRLVPRQVLCEKCKSTLSPPEAS: 3.52; TIRLQPRQVLCEKCKSTLSPPEAS: 3.
As for TIRLMPRQVLCEKCKSTLSPPEAS, the protein stability index turned out to be 3.22.
Next, TIRLFPRQVLCEKCKSTLSPPEAS: 3.19; TIRLPPRQVLCEKCKSTLSPPEAS: 3.54; TIRLTPRQVLCEKCKSTLSPPEAS: 3.1.
Next, TIRLGPRQVLCEKCKSTLSPPEAS: 3.37; TIRLYPRQVLCEKCKSTLSPPEAS: 2.73.
Next, TIRLAPRQVLCEKCKSTLSPPEAS: 3.34.
For the variant TIRLEPRQVLCEKCKSTLSPPEAS, the protein stability index amounted to 4.03.
Next, TIRLHPRQVLCEKCKSTLSPPEAS: 3.16; TIRLDPRQVLCEKCKSTLSPPEAS: 3.73.
Take TIRLKPRQVLCEKCKSTLSPPEAS: the protein stability index was determined as 2.96.
As for TIRLWPRQVLCEKCKSTLSPPEAS, the protein stability index was found to be 2.9.
For the variant TIRLIPRQVLCEKCKSTLSPPEAS, the protein stability index was 2.93.
Next, TIRLSPRQVLCEKCKSTLSPPEAS: 3.43; TIRLLPRQVLCEKCKSTLSPPEAS: 2.91; TIRLCPRQVLCEKCKSTLSPPEAS: 2.77.
Turning to TIRLRPRPVLCEKCKSTLSPPEAS, the protein stability index came to 3.06.
Next, TIRLRPRHVLCEKCKSTLSPPEAS: 2.77; TIRLRPRNVLCEKCKSTLSPPEAS: 2.97.
Next, TIRLRPRTVLCEKCKSTLSPPEAS: 2.76; TIRLRPRWVLCEKCKSTLSPPEAS: 2.19.
Next, TIRLRPRRVLCEKCKSTLSPPEAS: 2.95; TIRLRPREVLCEKCKSTLSPPEAS: 3.33.
As for TIRLRPRAVLCEKCKSTLSPPEAS, the protein stability index was 2.85.
Next, TIRLRPRIVLCEKCKSTLSPPEAS: 2.64.
Next, TIRLRPRMVLCEKCKSTLSPPEAS: 2.92; TIRLRPRCVLCEKCKSTLSPPEAS: 2.09; TIRLRPRKVLCEKCKSTLSPPEAS: 2.99.
Next, TIRLRPRFVLCEKCKSTLSPPEAS: 2.24; TIRLRPRSVLCEKCKSTLSPPEAS: 3.05.
As for TIRLRPRVVLCEKCKSTLSPPEAS, the protein stability index is 2.35.
Next, TIRLRPRYVLCEKCKSTLSPPEAS: 2.74; TIRLRPRGVLCEKCKSTLSPPEAS: 2.96; TIRLRPRLVLCEKCKSTLSPPEAS: 2.58.
Next, TIRLRPRDVLCEKCKSTLSPPEAS: 3.49; TIRLRPPQVLCEKCKSTLSPPEAS: 3.33; TIRLRPHQVLCEKCKSTLSPPEAS: 3.1.
Next, TIRLRPEQVLCEKCKSTLSPPEAS: 3.9; TIRLRPIQVLCEKCKSTLSPPEAS: 2.9.
For TIRLRPGQVLCEKCKSTLSPPEAS, the protein stability index worked out at 3.12.
Next, TIRLRPYQVLCEKCKSTLSPPEAS: 2.69.
Next, TIRLRPFQVLCEKCKSTLSPPEAS: 2.94.
For TIRLRPTQVLCEKCKSTLSPPEAS, the protein stability index came out at 3.31.
Next, TIRLRPWQVLCEKCKSTLSPPEAS: 2.16; TIRLRPDQVLCEKCKSTLSPPEAS: 3.85; TIRLRPCQVLCEKCKSTLSPPEAS: 3.2.
Next, TIRLRPSQVLCEKCKSTLSPPEAS: 3.01; TIRLRPKQVLCEKCKSTLSPPEAS: 2.99; TIRLRPQQVLCEKCKSTLSPPEAS: 3.38.
Next, TIRLRPNQVLCEKCKSTLSPPEAS: 2.87; TIRLRPAQVLCEKCKSTLSPPEAS: 3.48.
Regarding TIRLRPVQVLCEKCKSTLSPPEAS, the protein stability index turned out to be 2.96.
Next, TIRLRPMQVLCEKCKSTLSPPEAS: 2.92; TIRLRPLQVLCEKCKSTLSPPEAS: 2.62; TIRLRSRQVLCEKCKSTLSPPEAS: 3.1.
Next, TIRLRLRQVLCEKCKSTLSPPEAS: 2.04; TIRLRIRQVLCEKCKSTLSPPEAS: 1.62.
TIRLRERQVLCEKCKSTLSPPEAS: the protein stability index is 3.8.
Next, TIRLRKRQVLCEKCKSTLSPPEAS: 2.82.
Next, TIRLRMRQVLCEKCKSTLSPPEAS: 2.37; TIRLRGRQVLCEKCKSTLSPPEAS: 3.25; TIRLRARQVLCEKCKSTLSPPEAS: 2.76.
Next, TIRLRCRQVLCEKCKSTLSPPEAS: 2.46; TIRLRFRQVLCEKCKSTLSPPEAS: 2.05; TIRLRDRQVLCEKCKSTLSPPEAS: 3.61.
In the case of TIRLRQRQVLCEKCKSTLSPPEAS, the protein stability index is 3.02.
For the variant TIRLRRRQVLCEKCKSTLSPPEAS, the protein stability index stood at 2.52.
With TIRLRVRQVLCEKCKSTLSPPEAS, the protein stability index turned out to be 2.19.
Next, TIRLRHRQVLCEKCKSTLSPPEAS: 2.77; TIRLRNRQVLCEKCKSTLSPPEAS: 2.53; TIRLRWRQVLCEKCKSTLSPPEAS: 2.05.
Next, TIRLRYRQVLCEKCKSTLSPPEAS: 2.04.
Next, TIRLRTRQVLCEKCKSTLSPPEAS: 3.09.
